Patent US20220372155A1 (LYVGEN BIOPHARMA, published 2022)

B1: Ly463 (bispecific antibody, human IgG1, kappa)
heavy: QVQLKESGPGLVAPSQSLSITCTVSGFSLTDYGVRWIRQPPGKGLEWLGVIWGGGSTYYNSALKSRLSISKDNSKSQVFLKMNSLQTDDTAMYYCAKEKRRGYYYAMDYWGQGTSVTVSSASTKGPSVFPLAPSSKSTSGGTAALGCLVKDYFPEPVTVSWNSGALTSGVHTFPAVLQSSGLYSLSSVVTVPSSSLGTQTYICNVNHKPSNTKVDKKVEPKSCDKTHTCPPCPAPELLGPSVFLFPPKPKDTLMISRTPEVTCVVVDVSHEDPEVKFNWYVDGVEVHNAKTKPREEQYNSTYRVVSVLTVLHQDWLNGKEYKCKVSNKALPAPIEKTISKAKGQPREPQVYTLPPSREEMTKNQVSLTCLVKGFYPSDIAVEWESNGQPENNYKTTPPVLDSDGSFFLYSKLTVDKSRWQQGNVFSCSVMHEALHNHYTQKSLSLSPGGGGGSGGGGSGGGGSGGGGSQVQLVESGGGLVQPGGSLKLSCATSGFNFNDYFMNWVRQASGKGLEWVGQIRNKNYNYATYYTESLEGRVTISRDDSKNTAYLQMNSLKTEDTAVYYCTSYYYDGFADYFDYWGQGTTVTVSSGGGGSGGGGSGGGGSGGGGSDIQMTQSPSSLSASVGDRVTITCKASQNIYIYLNWYQQKPGKAPKLLIYNTNNLQTGVPSRFSGSGSGTDFTLTISSLQPEDFATYYCLQHSSRRTFGGGTKVEIK
light: ENVLTQSPAIMSASPGEKVTMTCRASSSVSSSYLHWYQQKSGASPKLWIYSTSNLASGVPARFSGSGSGTSYSLTISSVEAEDAATYYCQQYSGYPLTFGGGTKLEIKRTVAAPSVFIFPPSDEQLKSGTASVVCLLNNFYPREAKVQWKVDNALQSGNSQESVTEQDSKDSTYSLSSTLTLSKADYEKHKVYACEVTHQGLSSPVTKSFNRGEC
notes: Ly368 HC-TM740 scFv VH-VL + Ly368 LC
B2: Ly467 (bispecific antibody, human IgG1, kappa)
heavy: QVQLKESGPGLVAPSQSLSITCTVSGFSLTDYGVRWIRQPPGKGLEWLGVIWGGGSTYYNSALKSRLSISKDNSKSQVFLKMNSLQTDDTAMYYCAKEKRRGYYYAMDYWGQGTSVTVSSASTKGPSVFPLAPSSKSTSGGTAALGCLVKDYFPEPVTVSWNSGALTSGVHTFPAVLQSSGLYSLSSVVTVPSSSLGTQTYICNVNHKPSNTKVDKKVEPKSCDKTHTCPPCPAPELLGPSVFLFPPKPKDTLMISRTPEVTCVVVDVSHEDPEVKFNWYVDGVEVHNAKTKPREEQYNSTYRVVSVLTVLHQDWLNGKEYKCKVSNKALPAPIEKTISKAKGQPREPQVYTLPPSREEMTKNQVSLTCLVKGFYPSDIAVEWESNGQPENNYKTTPPVLDSDGSFFLYSKLTVDKSRWQQGNVFSCSVMHEALHNHYTQKSLSLSPGGGGGSGGGGSGGGGSGGGGSEVQLVESGGGLVQPGGSLRLSCAASGFTFTNYGLHWVRQAPGKGLEWVSSISPSGGVTYYRDSVKGRFTISRDNSKNTLYLQMNSLRAEDTAVYYCAKPFLGWGGANWIAHWGQGTLVTVSSGGGGSGGGGSGGGGSGGGGSDIQMTQSPSSLSASVGDRVTITCLASEDISNDLAWYQQKPGKAPKLLIYFVDRLLDGVPSRFSGSGSGTDFTLTISSLQPEDFATYYCQQSYKYPPTFGQGTKLEIK
light: B1 light
notes: Ly368 HC-TM559 scFv VH-VL + Ly368 LC
B3: Ly466 (bispecific antibody, human IgG1, kappa)
heavy: QVQLKESGPGLVAPSQSLSITCTVSGFSLTDYGVRWIRQPPGKGLEWLGVIWGGGSTYYNSALKSRLSISKDNSKSQVFLKMNSLQTDDTAMYYCAKEKRRGYYYAMDYWGQGTSVTVSSASTKGPSVFPLAPSSKSTSGGTAALGCLVKDYFPEPVTVSWNSGALTSGVHTFPAVLQSSGLYSLSSVVTVPSSSLGTQTYICNVNHKPSNTKVDKKVEPKSCDKTHTCPPCPAPELLGPSVFLFPPKPKDTLMISRTPEVTCVVVDVSHEDPEVKFNWYVDGVEVHNAKTKPREEQYNSTYRVVSVLTVLHQDWLNGKEYKCKVSNKALPAPIEKTISKAKGQPREPQVYTLPPSREEMTKNQVSLTCLVKGFYPSDIAVEWESNGQPENNYKTTPPVLDSDGSFFLYSKLTVDKSRWQQGNVFSCSVMHEALHNHYTQKSLSLSPGGGGGSGGGGSGGGGSGGGGSDIQMTQSPSSLSASVGDRVTITCLASEDISNDLAWYQQKPGKAPKLLIYFVDRLLDGVPSRFSGSGSGTDFTLTISSLQPEDFATYYCQQSYKYPPTFGQGTKLEIKGGGGSGGGGSGGGGSGGGGSEVQLVESGGGLVQPGGSLRLSCAASGFTFTNYGLHWVRQAPGKGLEWVSSISPSGGVTYYRDSVKGRFTISRDNSKNTLYLQMNSLRAEDTAVYYCAKPFLGWGGANWIAHWGQGTLVTVSS
light: B1 light
notes: Ly368 HC-TM559 scFv VL-VH + Ly368 LC
B4: Ly464 (bispecific antibody, human IgG1, kappa)
heavy: QVQLKESGPGLVAPSQSLSITCTVSGFSLTDYGVRWIRQPPGKGLEWLGVIWGGGSTYYNSALKSRLSISKDNSKSQVFLKMNSLQTDDTAMYYCAKEKRRGYYYAMDYWGQGTSVTVSSASTKGPSVFPLAPSSKSTSGGTAALGCLVKDYFPEPVTVSWNSGALTSGVHTFPAVLQSSGLYSLSSVVTVPSSSLGTQTYICNVNHKPSNTKVDKKVEPKSCDKTHTCPPCPAPELLGPSVFLFPPKPKDTLMISRTPEVTCVVVDVSHEDPEVKFNWYVDGVEVHNAKTKPREEQYNSTYRVVSVLTVLHQDWLNGKEYKCKVSNKALPAPIEKTISKAKGQPREPQVYTLPPSREEMTKNQVSLTCLVKGFYPSDIAVEWESNGQPENNYKTTPPVLDSDGSFFLYSKLTVDKSRWQQGNVFSCSVMHEALHNHYTQKSLSLSPG
light: ENVLTQSPAIMSASPGEKVTMTCRASSSVSSSYLHWYQQKSGASPKLWIYSTSNLASGVPARFSGSGSGTSYSLTISSVEAEDAATYYCQQYSGYPLTFGGGTKLEIKRTVAAPSVFIFPPSDEQLKSGTASVVCLLNNFYPREAKVQWKVDNALQSGNSQESVTEQDSKDSTYSLSSTLTLSKADYEKHKVYACEVTHQGLSSPVTKSFNRGECGGGGSGGGGSGGGGSGGGGSDIQMTQSPSSLSASVGDRVTITCKASQNIYIYLNWYQQKPGKAPKLLIYNTNNLQTGVPSRFSGSGSGTDFTLTISSLQPEDFATYYCLQHSSRRTFGGGTKVEIKGGGGSGGGGSGGGGSGGGGSQVQLVESGGGLVQPGGSLKLSCATSGFNFNDYFMNWVRQASGKGLEWVGQIRNKNYNYATYYTESLEGRVTISRDDSKNTAYLQMNSLKTEDTAVYYCTSYYYDGFADYFDYWGQGTTVTVSS
notes: Ly368 HC + Ly368 LC-TM740 scFv VL-VH
B5: Ly465 (bispecific antibody, human IgG1, kappa)
heavy: B4 heavy
light: ENVLTQSPAIMSASPGEKVTMTCRASSSVSSSYLHWYQQKSGASPKLWIYSTSNLASGVPARFSGSGSGTSYSLTISSVEAEDAATYYCQQYSGYPLTFGGGTKLEIKRTVAAPSVFIFPPSDEQLKSGTASVVCLLNNFYPREAKVQWKVDNALQSGNSQESVTEQDSKDSTYSLSSTLTLSKADYEKHKVYACEVTHQGLSSPVTKSFNRGECGGGGSGGGGSGGGGSGGGGSQVQLVESGGGLVQPGGSLKLSCATSGFNFNDYFMNWVRQASGKGLEWVGQIRNKNYNYATYYTESLEGRVTISRDDSKNTAYLQMNSLKTEDTAVYYCTSYYYDGFADYFDYWGQGTTVTVSSGGGGSGGGGSGGGGSGGGGSDIQMTQSPSSLSASVGDRVTITCKASQNIYIYLNWYQQKPGKAPKLLIYNTNNLQTGVPSRFSGSGSGTDFTLTISSLQPEDFATYYCLQHSSRRTFGGGTKVEIK
notes: Ly368 HC + Ly368 LC-TM740 scFv VH-VL

Target: T1, human CD40 expressed on CHO cells (human, UniProt P25942 21-277)
T1 construct: whole, on cells; also used for the reporter cells over-expressing human CD40; also called cellular CD40; CHO-CD40 cells
T1 sequence (P25942 21-277): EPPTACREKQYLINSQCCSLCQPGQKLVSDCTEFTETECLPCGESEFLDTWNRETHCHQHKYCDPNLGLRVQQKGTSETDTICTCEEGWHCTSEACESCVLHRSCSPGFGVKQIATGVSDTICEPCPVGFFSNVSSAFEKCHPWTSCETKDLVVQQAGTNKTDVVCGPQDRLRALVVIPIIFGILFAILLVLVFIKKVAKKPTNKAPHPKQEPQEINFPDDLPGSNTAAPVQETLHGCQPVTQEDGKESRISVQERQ
Assay: FACS, CHO cells

Binding result, binds:
B1
B2
B3
B4
B5
